We go through 6 molecules from article PMC7132340 (EMBO Reports, 2020).

The target in experiment [1] is T1, WT human CXCL12α (human, UniProt P48061-2 22-89, 15N-labelled in one NMR orientation; FITC in flow cytometry (Fig 6H)).
T1 construct: CXCL12 alpha, human, codon-optimised cDNA, released from the thioredoxin-His fusion by enterokinase; also called CXCL12 FITC; source: E. coli BL21(DE3), from inclusion bodies, purified (HisTrap, Heparin HP, enterokinase cleavage, Mono S); not shown: thioredoxin, N-terminal, cleaved; His tag, N-terminal, cleaved
As to the kind of experiment: NMR titration; 1H-15N HSQC, 15N-labelled protein with unlabelled partner (10 μM 15N-CXCL12 with 330 μM Gal-3 CRD; 30 μM 15N-Gal-3 CRD with 500 μM CXCL12; 30 μM 15N-CXCL12 with 500 μM Gal-3 CRD mutants), 20 mM sodium acetate pH 4.5, 4.5 mM lactose, 37°C. Conditions: both partners purified.

The target in experiment [2] is T1, WT human CXCL12α. As to the kind of experiment: far-Western, overlay or dot blot; solid-phase immunoassay: 100 ng of Gal-3 or Gal-3 CRD variants on nitrocellulose, 120 nM CXCL12 overnight, SA-HRP, densitometry (Appendix Fig S7). Conditions: both partners purified.

B1: Gal‐3 CRD mutant Q220E (domain or fragment, UniProt P17931 108-250, looked up)
chain: GAPAGPLIVPYNLPLPGGVVPRMLITILGTVKPNANRIALDFQRGNDVAFHFNPRFNENNRRVIVCNTKLDNNWGREERQSVFPFESGKPFKIQVLVEPDHFKVAVNDAHLLEYNHRVKKLNEISKLGISGDIDLTSASYTMI
notes: The limits are those printed for the wild-type CRD
With B1, in the experiment with WT human CXCL12α [1], the “CXCL12 sequence-averaged Δδ” value was found to be 0.0073 ppm.

B2: Gal‐3 CRD mutant N222A (domain or fragment, UniProt P17931 108-250, looked up)
chain: GAPAGPLIVPYNLPLPGGVVPRMLITILGTVKPNANRIALDFQRGNDVAFHFNPRFNENNRRVIVCNTKLDNNWGREERQSVFPFESGKPFKIQVLVEPDHFKVAVNDAHLLQYAHRVKKLNEISKLGISGDIDLTSASYTMI
notes: as for B1
In the case of B2, the binding result with WT human CXCL12α [2] was “binds”.

B3: Gal‐3 CRD mutant N160A (domain or fragment, UniProt P17931 108-250, looked up)
chain: GAPAGPLIVPYNLPLPGGVVPRMLITILGTVKPNANRIALDFQRGNDVAFHFAPRFNENNRRVIVCNTKLDNNWGREERQSVFPFESGKPFKIQVLVEPDHFKVAVNDAHLLQYNHRVKKLNEISKLGISGDIDLTSASYTMI
notes: as for B1
Regarding B3, the binding result with WT human CXCL12α [2] is given as “binds”.

B4: Gal‐3 CRD mutant E185A (domain or fragment, UniProt P17931 108-250, looked up)
chain: GAPAGPLIVPYNLPLPGGVVPRMLITILGTVKPNANRIALDFQRGNDVAFHFNPRFNENNRRVIVCNTKLDNNWGREARQSVFPFESGKPFKIQVLVEPDHFKVAVNDAHLLQYNHRVKKLNEISKLGISGDIDLTSASYTMI
notes: as for B1
In the case of B4, the binding result with WT human CXCL12α [2] was “binds”.

B5: Gal‐3 CRD mutant Q220K (domain or fragment, UniProt P17931 108-250, looked up)
chain: GAPAGPLIVPYNLPLPGGVVPRMLITILGTVKPNANRIALDFQRGNDVAFHFNPRFNENNRRVIVCNTKLDNNWGREERQSVFPFESGKPFKIQVLVEPDHFKVAVNDAHLLKYNHRVKKLNEISKLGISGDIDLTSASYTMI
notes: as for B1
For the molecule B5, the “CXCL12 sequence-averaged Δδ” value with WT human CXCL12α [1] is 0.0036 ppm.

B6: Gal‐3 CRD mutant H217A (domain or fragment, UniProt P17931 108-250, looked up)
chain: GAPAGPLIVPYNLPLPGGVVPRMLITILGTVKPNANRIALDFQRGNDVAFHFNPRFNENNRRVIVCNTKLDNNWGREERQSVFPFESGKPFKIQVLVEPDHFKVAVNDAALLQYNHRVKKLNEISKLGISGDIDLTSASYTMI
notes: as for B1
Regarding B6, the “CXCL12 sequence-averaged Δδ” value in the experiment with WT human CXCL12α [1] was found to be 0.0048 ppm.
